Results as given in publication PMC8639797 (Nature, 2021).
Positions count from the first letter of the chain named. In names and notes the source's numbering stands.

Columns and labels:
AUC = target: the molecule itself; test: AUC
SEC-MALS + AUC = target: the molecule itself; test: SEC-MALS + AUC
[1] = target: ALK-ECR^ABR (residues 673–1025) (human); test: SEC-MALS
[2] = target: ALK-ECR^ABR−4M (T686A/N787A/Q788A/I795A) (human, UniProt Q9UM73 673-1025, T686A | N787A | Q788A | I795A); test: SEC-MALS + AUC

B1: MBP-ALKAL2^C66Y (ligand, human)
chain: AEPREPADGQALLRLVVELVQELRKHHSAEHKGLQLLGRDYALGRAEAAGLGPSPEQRVEIVPRDLRMKDKFLKHLTGPLYFSPKCSKHFHRLYHNTRDCTIPAYYKRCARLLTRLAVSPVCMEDKQ
Kd (AUC): 38 ± 6 µM

B2: ALK ECR^ABR−4M:ALKAL2^2M 1:1 complex (complex, human)
chain 1: QTPIFDPTVHWLFATCGASGPHGPTQAQCNNAYQNSNLSVEVGSEGPLKGIQIWKVPATDTYSISGYGAAGGKGGKNTMMRSHGVSVLGIFNLEKDDMLYILVGQQGEDACPSTAALIQKVCAGENNVIEEEIRVNRSVHEWAGGGGGGGGATYVFKMKDGVPVPLIIAAGGGGRAYGAKTDTFHPERLENNSSVLGLNGNSGAAGGGGGWNDNTSLLWAGKSLQEGATGGHSCPQAMKKWGWETRGGFGGGGGGCSSGGGGGGYIGGNAASNNDPEMDGEDGVSFISPLGILYTPALKVMEGHGEVNIKHYLNCSHCEVDECHMDPESHKVICFCDHGTVLAEDGVSCIVSP
chain 2: B1 chain with I102A, Y105A
fold reduction of dimerization to the 2:2 complex against the wild-type complex (SEC-MALS + AUC): 5 fold

B3: ALKAL2^C66Y (full-size, MBP removed) (ligand, human)
chain: B1 chain
stoichiometry N [1]: 1

B4: ALKAL2^2M (full-size ALKAL2^C66Y with I127A/Y130A) (ligand, human, UniProt Q6UX46 26-152, looked up)
chain: B1 chain with I102A, Y105A
stoichiometry N [2]: 1

B5: ALK-ECR^ABR–ALKAL2^C66Y 1:1 heterodimeric complex (complex, human)
chain 1: B2 chain 1 with A14T, A115N, A116Q, A123I
chain 2: B1 chain
Kd (SEC-MALS + AUC): ~3.2 µM
